Measured values as given in US20210147541A1 (Kyowa Kirin, published 2021).

T1: human CADM3 (human, UniProt Q8N126 25-398)
T1 construct: Full-length gene expressed transiently on Expi293F cells; also called cell adhesion molecule 3; human CADM3/Expi293F cells
T1 sequence: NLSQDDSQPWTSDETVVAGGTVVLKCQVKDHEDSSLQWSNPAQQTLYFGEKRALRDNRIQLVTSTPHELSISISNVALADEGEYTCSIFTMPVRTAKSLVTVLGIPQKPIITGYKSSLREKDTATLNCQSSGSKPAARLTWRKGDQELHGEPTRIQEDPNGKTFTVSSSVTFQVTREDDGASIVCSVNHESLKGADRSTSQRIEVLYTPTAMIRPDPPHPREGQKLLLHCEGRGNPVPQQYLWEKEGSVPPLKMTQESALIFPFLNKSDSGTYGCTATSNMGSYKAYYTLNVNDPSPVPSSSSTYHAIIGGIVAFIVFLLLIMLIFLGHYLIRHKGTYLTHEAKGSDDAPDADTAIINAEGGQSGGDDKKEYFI

T2: mouse CADM3 (mouse, UniProt Q99N28 23-396)
T2 construct: Full-length gene expressed transiently on Expi293F cells; also called mouse CADM3/Expi293F cells; Mouse CADM3-expressing cells
T2 sequence: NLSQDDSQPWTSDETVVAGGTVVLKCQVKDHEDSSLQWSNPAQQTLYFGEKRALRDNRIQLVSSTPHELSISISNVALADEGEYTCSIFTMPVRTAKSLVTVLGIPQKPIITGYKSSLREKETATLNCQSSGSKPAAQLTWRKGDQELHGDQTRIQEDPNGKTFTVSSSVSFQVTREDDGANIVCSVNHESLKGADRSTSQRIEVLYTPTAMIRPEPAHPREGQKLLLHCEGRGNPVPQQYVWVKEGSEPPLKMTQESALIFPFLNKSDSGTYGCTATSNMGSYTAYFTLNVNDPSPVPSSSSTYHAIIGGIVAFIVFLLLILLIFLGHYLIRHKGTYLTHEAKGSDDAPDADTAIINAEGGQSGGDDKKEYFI


Experiments:
[1] = biological target: T3, hCADM3-GST (human); assay: SPR (Biacore T-100), antibody captured, hCADM3-GST as analyte
T3 construct: also called extracellular domain of human CADM3 to which GST was added at the C-terminal side; human CADM3-GST
Procedure: (§1) The affinity of the anti-CADM3 antibodies produced in Example 2 for human CADM3 and mouse CADM3 was measured using Biacore T-100 (GE Healthcare). Each of the antibodies was immobilized on a […] sensor chip using a Human antibody Capture kit, and the binding ability was evaluated using hCADM3-GST and mCADM3-GST produced in Example 4 as analytes.
(§2) The obtained sensorgram was analyzed with BIA evaluation software, and the dissociation constant (KD value) was calculated.

[2] = biological target: T4, mCADM3-GST (mouse); assay: SPR (Biacore T-100), antibody captured, mCADM3-GST as analyte
T4 construct: also called extracellular domain of mouse CADM3 to which GST was added at the C-terminal side; mouse CADM3-GST
Procedure: as §1, §2

[3] = biological target: T1, human CADM3; assay: flow cytometry, 10 ug/mL, human CADM3/Expi293F vs parent Expi293F cells
Procedure: By using the cells, the reactivity of the antibodies produced in Example 2 with the CADM3-expressing cells was analyzed by a fluorescence activated cell sorting (FACS) method according to the following procedure.
After washing with SB, the cells were suspended in SB, and the fluorescence intensity of each cell was measured using a flow cytometer FACS CANTO II (manufactured by Becton, Dickinson and Company). Note that as a negative control, 10 μg/mL of the anti-AVM antibody was used.
The detection results were analyzed, and a mean fluorescence intensity (MFI) was calculated using a geometric mean. Further, with respect to the MFI when the concentration of each antibody was 10 μg/mL, the ratio of the MFI (mean fluorescence intensity ratio) between the human CADM3/Expi293F cells and the Expi293F cells (parent cell line) was calculated.

[4] = biological target: T2, mouse CADM3; assay: flow cytometry, 10 ug/mL, mouse CADM3/Expi293F vs parent Expi293F cells

Binder	binding result [1]	binding result [2]	Mean fluorescence intensity ratio [3]	Mean fluorescence intensity ratio [4]
CADM3301 hG4PE(R409K) (antibody, V domains shown, Human IgG4 variant (S228P, L235E, R409K), vector pCI-hKG4PE(R409K)) VH: QMQLVQSGAEVKKPGSSVKVSCKASGGTFNNYAISWVRQAPGQGLEWMGGNIPLSGTPKYAQKFQGRITMTADKSTSTEYMELSSLTSEDTAVYYCARDTPSGYNSPYYYKGMDVWGQGTMVTVSS VL: not shown	binds	binds	6	6.2
CADM3351 hG4PE(R409K) (antibody, V domains shown, Human IgG4 variant (S228P, L235E, R409K), vector pCI-hKG4PE(R409K)) VH: EVQLLQSGGGLVQPGGSLRLSCAASGLIFSDHYMDWVRQAPGKGLEWVGSIRNKRNGGSTEYAASVKGRFSISRDDSKNSLYLQMNSLKTEDTAMYFCATTRTGYQGFYGMDVWGQGTTVTVSS VL: not shown	binds	binds	8.2	8.8
CADM3404 hG4PE(R409K) (antibody, V domains shown, Human IgG4 variant (S228P, L235E, R409K), vector pCI-hKG4PE(R409K)) VH: EVQLVETGGGVVQPGRSLRLSCAASGFAFSNYGMHWVRQAPGKGLEWVSVIYSGGNTDYADSVKGRFTISRDNSKNTVYLQMNSLRAEDTAVYYCASRRVVPGVIDYFDSWGQGTLVTVSS VL: not shown	binds	binds	8.7	8.2
CADM3402 hG4PE(R409K) (antibody, V domains shown, Human IgG4 variant (S228P, L235E, R409K), vector pCI-hKG4PE(R409K)) VH: EVQLVESGGGLVQPGGSLRLSCATSGFRFSMYGMHWVRQSPGKGLEWVSVIYSGGNTDYADSVKGRFTISRDNSKNTVYLQMNSLRAEDTAVYYCASRRVVPGVIDYFDSWGQGTLVTVSS VL: not shown	binds	binds	10.8	9.4
CADM3458 hG4PE(R409K) (antibody, V domains shown, Human IgG4 variant (S228P, L235E, R409K), vector pCI-hKG4PE(R409K)) VH: EVQLVESGGGVVQPGRSLRLSCAASGFTFSRYGIHWVRQAPGKGLEWVAVIYSGGNTDYADSVKGRFTISRDNSKNTVYLQMNSLRAEDTAVYYCASRRVVPGVIDYFDSWGQGTLVTVSS VL: not shown	binds	binds	5.7	5.4
CADM3312 hG4PE(R409K) (antibody, V domains shown, Human IgG4 variant (S228P, L235E, R409K), vector pCI-hKG4PE(R409K)) VH: QLQLQESGPGLVKPSETLSLTCSVSGGSIRGHYWSWIRQPPGKGLEWMGYINHIGSAAYNPSLKSRVTISVDTSKNQFSLKLSSVTAADTAVYYCARMGPWWELDYWGQGTLVTVSS VL: not shown	binds	binds	34.4	31.6
iCADM3_3R1-L10 VHH-hG4PE(R409K) (Fc fusion, VHH-Fc antibody; also called anti-CADM3 VHH-Fc antibody iCADM3_3R1-L10; not shown: Hinge-CH2-CH3 region of the human IgG4 heavy chain constant region (IgG4 variant)) QVQLVESGGGLVQAGGSLRLSCAASGSIFSIHAMGWYRQAPGKQRELVATVTSGGSTNYADSVKGRFTISRDNAKNTVYLQMNSLKPEDTAVYYCNAETPYYSSTYYTNYWGQGTQVTVSS	binds	binds	37.5	8.87
CADM3102 scFv-hG4PE (Fc fusion, also called anti-CADM3 scFv-Fc antibody) VH: QMQLVQSGAEVKKPGSSVKVSCKASGGTFSSYAISWVRQAPGQGLEWMGGIIPMSGTANYAQKFQGRVTITADESTSTAYMELSSLRSEDTAVYYCARVEESGWYDHYHGMDVWGQGTTVTVSS VL: DVVMTQSPLSLPVTPGEPASISCTSSQSLLYSNGFNYLDWYLQKPGQSPQLLIYLGSNRASGVPDRFSGSGSGTDFTLKISRVEAEDVGVYYCMQALTTHPTFGGGTKVDIK	binds	binds	52.3	42.6
CADM301 scFv-hG4PE (Fc fusion, also called anti-CADM3 scFv-Fc antibody) VH: QVQLVQSGAEVRRPGTSVKVSCKASGYSFTSYDINWVRLATGQGLEWMGWMNPNTGDTGSPQKFQDRVTMTRDISTGTAYLELRGLKSEDTAIYYCARGFLVTAYTAEFFPHWGQGTLVTVSS VL: SYVLTQPPSVSVAPGKTARLTCGGNNIGSKSVHWYQQRPGQAPVLVINYDSDRPSGIPERFSGSNSENTATLTISRVEAGDEADYYCQVWDSGSDHVVFGGGTQLIIL	binds	binds	4.22	8.08
CADM3309 hG4PE(R409K) (antibody, V domains shown, Human IgG4 variant (S228P, L235E, R409K), vector pCI-hKG4PE(R409K)) VH: EVQLVQSGAEMKKPGSSVKLSCKFSGGDFRSYPISWVRQAPGQGLEWMGGIIPIFSRVNYAQRFLGRITITADESTSTAYMELRSLTSDDTAVYYCATDTPSGYNSPYYYKGMDVWGQGTLVTVSS VL: not shown	binds	binds	10.2	12.5
CADM3219 hG4PE(R409K) (antibody, V domains shown, Human IgG4 variant (S228P, L235E, R409K), vector pCI-hKG4PE(R409K)) VH: QVQLVQSGAEVKKPGASVKVSCKASGYSFTGYYIHWVRQAPGQGLEWMGRINPNSGGTTYAPKFQGRFTMTRDTSTTTVYLELSGLRSEDTAVYYCARVLERQGRPFEADAFDIWGQGTMVTVSS VL: not shown	binds	binds	7.3	9.2

Second part, the binder after the results:

binding result [1]	binding result [2]	Mean fluorescence intensity ratio [3]	Mean fluorescence intensity ratio [4]	Binder
binds	binds	10	9.2	CADM3314 hG4PE(R409K) (antibody, V domains shown, Human IgG4 variant (S228P, L235E, R409K), vector pCI-hKG4PE(R409K)) VH: QVQLVESGGGVVQPGGSLRLSCAASGFSFNNHGMHWVRQAPGKGLEWVTFIRFDGSSKYYADSVKGRFTISRDNSKNTVYLEMNSLRAEDTGVYYCVNTPRGWSFDIWGRGTLVTVSS VL: not shown
binds	binds	32.2	35.5	iCADM3_3R1-L11 VHH-hG4PE(R409K) (Fc fusion, VHH-Fc antibody; also called anti-CADM3 VHH-Fc antibody iCADM3_3R1-L11; not shown: Hinge-CH2-CH3 region of the human IgG4 heavy chain constant region (IgG4 variant)) QVQLVESGGGLVQAGGSLRLSCAASGSIFSFNAMGWYRQAPGKQRGLVAVITSGGYTNYADSVKGRFTITRDNAKNTVYLQMNSLKPEDTAVYYCNAEGVYSDYVIMNYWGQGTQVTVSS
binds	binds	4.8	48.7	CADM3349 hG4PE(R409K) (antibody, V domains shown, Human IgG4 variant (S228P, L235E, R409K), vector pCI-hKG4PE(R409K)) VH: QVQLQQWGGGLLTPSETLSLSCDVSGGAFTNYHWTWIRQPPGKGLEWIGEIFHTGTTNYNPSLQGRVAMSIDTTKRQFFLRLTSLTAADTAVYYCARVGKYGWYVGDFWGQGTTVTVSS VL: not shown
binds	binds	14.7	14.6	CADM3432 hG4PE(R409K) (antibody, V domains shown, Human IgG4 variant (S228P, L235E, R409K), vector pCI-hKG4PE(R409K)) VH: QVQLQQSGPGLVKASQTLSLTCAISGDSVSSRSAAWDWIRQSPSRGLEWLGRTYYRSTWYNDYASSVRSRISINPDTSKNQFSLQLNSVTPEDTAVYYCVRANRKLPAPGQHFYYGMDVWGQGTTVTVSS VL: not shown
binds	binds	25.1	4.21	iCADM3_3R1-L5 VHH-hG4PE(R409K) (Fc fusion, VHH-Fc antibody; also called anti-CADM3 VHH-Fc antibody iCADM3_3R1-L5; not shown: Hinge-CH2-CH3 region of the human IgG4 heavy chain constant region (IgG4 variant)) QVQLVESGGGLVQAGGSLRLSCAASGSIVSVNAMGWYRQAPGKQRELVATITSGGSTNYADSAKGRFTISRDNAKNTMYLQMNSLKPEDTAVYYCNGEFWSRRDTRPPGVVNYWGQGTQVTVSS
binds	binds	6.5	7.1	CADM3316 hG4PE(R409K) (antibody, V domains shown, Human IgG4 variant (S228P, L235E, R409K), vector pCI-hKG4PE(R409K)) VH: EVQLVETGGALVQPGGSLRLSCAASGFTFSSYSMNWVRQAPGKGLEWLSGISGGAFSTHYADSVKGRFTISRDNSKNTLYLQMNSLRAEDTAVYYCARVGRLSGSYNRYYYYYGMDVWGQGTLVTVSS VL: not shown
